For experiment [1], the target named is Carcinoembryonic antigen (CEA) (UniProt P06731). Description: SPR (Biacore 2000), oxidised CEA immobilised on CM5 chip, Fab′ injected.
Experiment [2] shares this target. The experiment is described as follows: SPR (Biacore 2000), oxidised CEA immobilised; relative to unmodified hA5B7 Fab′.
For experiment [3], the target named is T1, human TNF (human, UniProt P01375 77-233).
T1 construct: Soluble human TNF, used in the L929 assay and passed over captured antibody in BIAcore; also called human TNFα
T1 sequence (P01375 77-233 limits assumed): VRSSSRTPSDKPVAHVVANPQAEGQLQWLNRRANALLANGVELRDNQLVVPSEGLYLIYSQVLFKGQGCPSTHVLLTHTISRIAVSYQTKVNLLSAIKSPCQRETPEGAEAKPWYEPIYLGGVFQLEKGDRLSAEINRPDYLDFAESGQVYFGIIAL
The experiment is described as follows: BIAcore as in Example 3: sample captured by anti-Fab′ antibody, human TNF passed over. (In general: Surface plasmon resonance follows binding to a sensor surface in real time, without labels.)

For orientation: Kd means the free concentration of one partner at which half of the binding sites on the other are occupied at equilibrium, for simple one-to-one binding. By koff is commonly meant the rate constant with which the complex falls apart. A higher koff goes with a short-lived complex. Usually kon stands for a measure of how fast the partners come together. A low value points to slow association.

Carcinoembryonic antigen (CEA), sequence (P06731 35-685 limits assumed): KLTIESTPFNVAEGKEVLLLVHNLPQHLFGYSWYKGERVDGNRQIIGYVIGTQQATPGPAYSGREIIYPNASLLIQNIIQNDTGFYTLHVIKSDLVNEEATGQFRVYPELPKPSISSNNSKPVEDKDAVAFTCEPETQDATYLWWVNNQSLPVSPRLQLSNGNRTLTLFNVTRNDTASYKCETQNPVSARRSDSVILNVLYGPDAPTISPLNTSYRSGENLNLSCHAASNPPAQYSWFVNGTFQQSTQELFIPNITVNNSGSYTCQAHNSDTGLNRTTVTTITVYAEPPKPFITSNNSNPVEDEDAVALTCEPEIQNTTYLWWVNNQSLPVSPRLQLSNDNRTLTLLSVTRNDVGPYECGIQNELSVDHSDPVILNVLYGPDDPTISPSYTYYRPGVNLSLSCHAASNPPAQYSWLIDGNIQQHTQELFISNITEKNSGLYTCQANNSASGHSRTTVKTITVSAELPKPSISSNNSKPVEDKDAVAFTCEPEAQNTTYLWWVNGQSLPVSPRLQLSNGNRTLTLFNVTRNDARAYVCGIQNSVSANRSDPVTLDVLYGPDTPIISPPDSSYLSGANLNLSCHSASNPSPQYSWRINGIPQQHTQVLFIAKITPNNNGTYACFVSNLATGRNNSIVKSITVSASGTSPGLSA

Regarding hA5B7 Fab′ (unmodified), in experiment [1], the Kd is 1.87 nM, the off-rate (koff) was 0.000161 s⁻¹ and the kon is 86000 M⁻¹ s⁻¹. Besides, in experiment [2], the Immunoreactivity is 100%.

B1: hTNF40 IgG (antibody, V domains shown)
VH: QIQLVQSGPELKKPGETVKISCKASGYVFTDYGMNWVKQAPGKAFKWMGWINTYIGEPIYVDDFKGRFAFSLETSASTAFLQINNLKNEDTATYFCARGYRSYAMDYWGQGTSVTVSS
VL: DIVMTQSQKFMSTSVGDRVSVTCKATQNVGTNVAWYQQKPGQSPKALIYSASFLYSGVPYRFTGSGSGTDFTLTISTVQSEDLAEYFCQQYNIYPLTFGAGTKLELKR
On to B1, for which, in experiment [3], the dissociation constant Kd amounted to 0.156 nM.

(Values after US20040121415A1 (published 2004).)
